Values belong to the molecule of their own block, whether it stands above or below them.
Tests used:
dsr3510ΔC-term = biological target: T1, dsr3510ΔC-term (Liquorilactobacillus nagelii, UniProt A0A3Q8CN51); assay: Michaelis-Menten fit, released fructose (D-fructose/D-glucose assay kit); assay type: biochemical; conditions: pH 5.0, 30 °C, 0.05 M sodium acetate, 1 mM CaCl2; crude enzyme extract, 2500 µg/mL protein
T1 construct: gene BSQ50_03510
Source text: Michaelis-Menten fit, released fructose (D-fructose/D-glucose assay kit) on dsr3510ΔC-term

[1] = substrate: OC[C@H]1O[C@@](CO)(O[C@H]2O[C@H](CO)[C@@H](O)[C@H](O)[C@H]2O)[C@@H](O)[C@@H]1O; assay: as above; assay type: biochemical, Liquorilactobacillus nagelii; conditions: pH 5.0, 30 °C, 0.05 M sodium acetate, 1 mM CaCl2, crude enzyme extract, 500 µg/mL protein
Source text: Michaelis-Menten fit, released fructose (D-fructose/D-glucose assay kit) on dsr3510 (full-length L. nagelii TMW 1.1827 dextransucrase)

Km (dsr3510ΔC-term): 12.6 ± 0.73 mM
Molecule: OC[C@H]1O[C@@](CO)(O[C@H]2O[C@H](CO)[C@@H](O)[C@H](O)[C@H]2O)[C@@H](O)[C@@H]1O [sucrose]

B1: dsr3510 (full-length L. nagelii TMW 1.1827 dextransucrase) (Liquorilactobacillus nagelii) (protein)
chain: NVKISADSTPQNVVEQSSSSNDSSSNSSSSSKTSSSSKVNTDQVNEDTSSSITKENNISAMPKKQTQLTTATTAADKVTQTTDTSATTTAATNQQKNNQVESSSQSSSEQASSTISNNTTVSNTDSQQSSSQVANVTGGKYVDSNETWSYVDSQGNKIKGLNKVDGNLQYFDETSGAQIKGEYEKVGETTYYFDKNSGNAIPYTLTSDGKTTAYQADGQPAGAGFFTNQDGEIYYFDADGSYKTGLQTLNGTTYYFDSNGYLSKDTVENVDGKTYYSQADTGKTIQLTSQNLPTQTSTAKEVASFAAHNVAYSYDTKSFENINGYLTADSWYRPTYILNDGQLWIKSTSTDFRPLLMAWWPSKSIEADYLNYMIEQGIISSTRNFSANDDSLVLNSAAQNVQIALEKNLTMTGSVNWLRQIMQSFVKKEAIWNKTSEDPSSDGLSSLQGGFLTYQNSKLTPNANSDYRILGYVPSYIKNSNDKGSEFLLANDIDNSNPVVQAEELNWLYYLMNFGSITADDSSANFDGIRVDAVDNVDADLLKIAADYFKDAYQVNQNDQNADSHLSILEDWSNNDPQYVYDQGANQLTMDDYFVGQMNYSLENAPGSNSKMERFVQWYLINRANDSTEDTAIPNYTFVRAHDSNSQDQIQKAIQAATGGEYGVFTWEQLQQGLTLYYADQASTEKKYNRYNIPSAYAMLLTNKDTVPRVYYGDLYLEGGQYMANKTIYYDTITNLLASRVKYVAGGQTMSVDGNDVLTSVRFGKGAMTASDQGTSETRTEGVGVIVSNNTSLKLKDGDQVVLHMGVAHRNQAYRAAVLTTKDGIINYTSDDNAPIAYTDNNGDLVFTNQNLLINGVEEANTSIQGYANPDVTGYLAVWVPVGAATTQDARTAATTDSSTDGKTLHSNAALDSNVIYEGFSNFISYPDSHDDNTNVVIAKNTDLFKALGITSFELAPQYRTSGDKTFLDSTIDNGYAFTDRYDLGYGTPTKYGTVDDLRNVIKALHAAGIQAIADWVPDQIYNLPTEELVTVNRTDERGNQVASSKIHDLLYVANTIGGGDYQKKYGGAFLEVLETEYPDLFKEIQASTGKTIDPSQKITSWSAEYFNGTNILGRGSDYVLRSDDNQQYFYVGDDSSEVQKFLPASLVAENDRQKYSLGDQSANNYFVQENLNGKWYLIDPLNNQKQTGFQYIPDQIKTVYYNAQGEMQYGQQFLGGHWYLFDSRTGAMETGLQYIGNQHKTVYYNVQGQMQYGQQNVNGHWYLFDSKTGAMKTGWQYISNQHKTVYYNTQGQMQYGQQNVNGHWYLFDSKTGAMKTGWQYISDQHKTVYYNGQGQMQYGQQNVNGHWYLFDSKTGAMKTGWQYISNQHKTVYYNSQGQMVYGKQVIAGKTYYFDTKTGRKL
Km [1]: 10.97 ± 1.56 mM
Vmax [1]: 200 µM/min
